Source: patent US20150218244A1

Target: IL-10 receptor (IL-10R) on freshly isolated primary blood monocytes (human) (UniProt Q13651)
Experiment: cell-based or functional assay

Chain of IL-10 receptor (IL-10R) on freshly isolated primary blood monocytes (human) (Q13651 22-578, chain 1 of 2): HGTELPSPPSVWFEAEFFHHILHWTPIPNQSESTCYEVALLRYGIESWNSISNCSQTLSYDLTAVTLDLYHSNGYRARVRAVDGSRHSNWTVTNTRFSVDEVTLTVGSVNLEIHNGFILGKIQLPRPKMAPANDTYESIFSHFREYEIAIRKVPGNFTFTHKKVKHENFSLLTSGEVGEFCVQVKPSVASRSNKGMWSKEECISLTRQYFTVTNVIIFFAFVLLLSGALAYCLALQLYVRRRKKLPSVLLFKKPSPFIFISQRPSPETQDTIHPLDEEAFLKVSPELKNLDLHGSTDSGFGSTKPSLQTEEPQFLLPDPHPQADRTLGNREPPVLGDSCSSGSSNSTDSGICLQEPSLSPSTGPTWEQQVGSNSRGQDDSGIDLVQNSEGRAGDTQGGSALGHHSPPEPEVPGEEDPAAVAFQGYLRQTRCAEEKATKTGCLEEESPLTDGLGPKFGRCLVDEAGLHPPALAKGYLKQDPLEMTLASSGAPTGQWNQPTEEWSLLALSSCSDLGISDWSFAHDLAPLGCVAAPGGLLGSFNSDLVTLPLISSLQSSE
Chain of IL-10 receptor (IL-10R) on freshly isolated primary blood monocytes (human) (Q08334 20-325, chain 2 of 2, further chain): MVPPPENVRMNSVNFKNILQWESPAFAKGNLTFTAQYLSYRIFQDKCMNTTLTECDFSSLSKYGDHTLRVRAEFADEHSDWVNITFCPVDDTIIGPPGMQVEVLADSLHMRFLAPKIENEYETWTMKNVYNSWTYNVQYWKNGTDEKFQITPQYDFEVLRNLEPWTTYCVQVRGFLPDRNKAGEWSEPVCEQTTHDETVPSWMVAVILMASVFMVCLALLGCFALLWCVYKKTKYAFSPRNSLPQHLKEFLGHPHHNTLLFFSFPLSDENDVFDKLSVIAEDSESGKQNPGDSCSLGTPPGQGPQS

- EC50 [nM] pSTAT3 induction: 0.017 nM
- EC50 [nM] pSTAT3 induction, Donor 1: 0.029 nM
- EC50 [nM] pSTAT3 induction, Donor 2: 0.019 nM
- EC50 [nM] pSTAT3 induction, Donor 3: 0.021 nM
Substance: recombinant wild type human IL-10 (from UniProt P22301 19-178) (ligand)
